The text below walks through data of patent publication US20210300999A1.

This experiment addresses SARS-CoV-2 S receptor-binding domain (SRBD), residues 319-541 (SARS-CoV-2) (UniProt P0DTC2). As to the kind of experiment: ELISA on coated antigen. A general note: ELISA stands for enzyme-linked immunosorbent assay.

In the case of “rCR3022 (recombinant form of the cross-reactive SARS-CoV SRBD mAb CR3022) (antibody)”, the EC50 was determined as 1.1 ng/mL.

As usually defined, the EC50 is the midpoint of the concentration-response curve. Read a low EC50 as higher potency in that assay.
